In paper PMC6724696 (Molecular Biology of the Cell, 2019):
Where two headings read alike, the source gives them in different places. Where no end group is shown, it is not given here.

Assays:
Assay in all cases: crystal structure
crystal structure [1] = biological target: the molecule itself
crystal structure [2] = biological target: the molecule itself; remark: listed apart in the source
crystal structure [3] = biological target: the molecule itself; remark: listed apart in the source

Protein: SDQDSRLKAIERELEVLTNYVMRSEDGNNDR (domain or fragment, Saccharomyces cerevisiae, UniProt P36094 181-211, looked up) [3H5I-Spc42^181–211 T193E,S195E]
- stoichiometry N (crystal structure [1]): 3

B1: H6-Spc42^11–130-3K2N (SeMet) (domain or fragment, Saccharomyces cerevisiae, UniProt P36094 11-130, looked up)
chain: SSKSSRLYDDYYNIPYQYSNPTPMNRDYNDVGSRINADKLVPEEYKRNTEFINKAVQQNKELNFKLREKQNEIFELKKIAETLRSKLEKYVDITKKLEDQNLNLQIKISDLEKKLSDANS
modifications: selenomethionine (SeMet)
- binding result (crystal structure [2]): binds

B2: Spc42^246–305 (domain or fragment, Saccharomyces cerevisiae, UniProt P36094 246-305, looked up)
chain: SDDDIMMYESAELKRVEEEIEELKRKILVRKKHDLRKLSLNNQLQELQSMMDGDDNIKLD
modifications: also: selenomethionine (SeMet) in the crystals
- stoichiometry N (crystal structure [3]): 2
